From patent US20100209425A1

What was measured:
[1] = target: hen-egg lysozyme (HEL) from chicken egg white (chicken) (UniProt P00698); test: flow cytometry titration of biotinylated HEL on yeast-displayed D1.3 scFv; PBS with BSA
[2] = target: hen-egg lysozyme (HEL) from chicken egg white (chicken) (UniProt P00698); test: yeast display immunoprecipitation with 5x10^7 yeast from RBE4 lysate holding 34 nM HEL, gel densitometry
[3] = target: hen-egg lysozyme (HEL) from chicken egg white (chicken) (UniProt P00698); test: flow cytometry titration of biotinylated HEL on yeast-displayed D1.3 scFv; PBS with Triton X-100
[4] = target: hen-egg lysozyme (HEL) from chicken egg white (chicken) (UniProt P00698); test: flow cytometry titration of biotinylated HEL on yeast-displayed D1.3 scFv; PBS with n-octyl-beta-D-glucopyranoside

Sequence of UniProt P00698 (P00698 19-147): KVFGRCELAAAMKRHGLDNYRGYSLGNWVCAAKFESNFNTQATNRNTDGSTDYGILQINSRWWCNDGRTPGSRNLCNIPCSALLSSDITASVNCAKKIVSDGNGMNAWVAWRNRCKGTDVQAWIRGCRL

Substance: anti-hen egg lysozyme D1.3 scFv displayed on yeast
- Kd [1]: 1.07 nM
- percent of the theoretical immunoprecipitation yield [2]: 70%
- Kd [3]: 0.488 nM
- Kd [4]: 2.61 nM
